The values that follow come from patent publication US20090081724A1 (BIONOMICS, published 2009).

The target of this test is AD-CaM (Calmodulin, encoded by the CALM2 gene, fused to the activation domain) (human, UniProt P0DP24 1-149). Nature of the test: yeast two-hybrid, HIS3 and LacZ reporters.

B1: DB-Q2C R353G mutant (other, not shown: small tags and cut ends)
chain: KVQEQHRQKHFEKRRNPAAGLIQSAWRFYATNLSGTDLHSTWQYYERTVTVPMYSSQTQTYGASRLIPPLNQLELLRNLKSKSGLAFRKDPPPEPSPSQKVSLKDRVFSSPRGVAAKGKGSPQAQTVRRSPSADQSLEDSPSKVPKSWSFGDRSRARQAFRIKGAASRQNSEEASLPGEDIVDDKSCPCEFVTEDLTPGLKVSIRAVCVMRFLVSKRKFKESLRPYDVMDVIEQYSAGHLDMLSRIKSLQSRVDQIVGRGPAITDKDRTKGPAEAELPEDPSMMGRLGKVEKQVLSMEKKLDFLVNIYMQRMGIPPTETEAYFGAKEPEPAPPYHSPEDSREHVDRHGCIVKIVRSSSSTGQKNFSAPPAAPPVQCPPSTSWQPQSHPRQGHGTSPVGDHGSLVRIPPPPAHERSLSAYGGGNRASMEFLRQEDTPGCRPPEGTLRDSDTSISIPSVDHEELERSFSGFSISQSKENLDALNSCYAAVAPCAKVRPYIAEGESDTDSDLCTPCGPPPRSATGEGPFGDVGWAGPRK
notes: Only the intracellular C-terminal region stood in the bait, made with the same primers as the wt construct; also called R353G KCNQ2 mutant
B1: the binding result was “no binding”.
